Laboratory results taken from the NTF2 design screens of Basanta et al. (2020).

Assay: protease stability score; higher = more stable; yeast display proteolysis, trypsin and chymotrypsin;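 note: relative to predicted unfolded state with 0 unfolded-like and 1 meaning tenfold more protease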

| Sequence | protease stability score |
| --- | --- |
| SEEEKEVKEHLKIIHDVIRTGNEHDIKELMDPNMLLVFNGQKHIGRDHWEELLKKLGADHVHLHIRSFTIINGQARLETEVEWRAENRTIRRETEIVTDKINGRWIIHTIIFR | 1.5 |
| DEDTHEFRHFIELRRHNLETGNERALAELLDPNVRILFDGVDIVGRDSWIKHLRELGYEQVDSRVNIKRLEIWNGRAHMDGRVRRHFDGKTTEVDVHLVLVKFNGRWVIESIHNH | 0.555 |
| NEDEKLAEDAIQEYRHSVKTGDENFLKHLADPDVRMDYNGREYHGREEWEKFLRNILRHLRPKDFRIKHFDYYGDYMHFEGLHVGQINGKETHLHTEIIFLKINGRWHLRSIRIE | 0.401 |
| SEEEHEFKKFLEHFLHRLTTGDEDELRRLADPHVRVLINGRHIVGMDEVTKVLRHLREIIEELRIDDIDLQGDKIRMDTRTRIRFIIGDWETKIETRTRIFIWKFNGRWIMEHIERD | 0.811 |
| TEMEEWSRLAIEIWEEVVRTGNEHDMARLLDPNTRLIVGEKEYHGMETVMHLLERIKNLVLRRFHIEHVRLQGDKVEIDARSVHHVNGRDIETTLKIISFKFNGRWTIRQESII | 0.614 |
| SEEEEFAERLVRMFEEELATGDEHKLQRLLDPHVKVEINGREIIGREEWTNHLDHIRLELHDTKLREVRVQGDKIHVHGKTDIIIKVGDKSERHHVEVLFIIKKINGRWILERVHVR | 1.13 |
| SEEEESAKWFNHVRHEAERTGDEETLLRLLDPSVKSTYGDKTSHGRHEMEEIMKRLGVSRVHLDIRHVEVQGDKVNVDGLVEFDGQEMRVILIVLKIDGRWIAEHVIVH | -0.118 |
| DHEEEQVRLAFEIFKTLQETGDEELLHHFFDPNARSDVDGREVVGRHAVEEWQRDLGVDHIHVHKFTFIDGRVEMHFTYTQGDKVIKVHIYVHKVDGKWDMHRIHVR | 1.24 |
| DKKEKDAKEAFDWLVKHVRTGDETMLHELMDPDVKLEIGDKHIVGRENVVHVFSRLIERADHMEFILTDMKVYDGRVESDTILVLHIDGVEIRRKTKITVIKINGRWLLHTVHIE | 1.31 |
| TEEEEIVTRALDKFREDLDTGDWKSIKHNFDPDVRLVFENHSTHGRELAVTIAEHIFKRFDYVHDSRNEHIKFQGDKVEWHSHYDGTINGRRMEVRILLIVRKYNGVWIIEEYLIV | 1.47 |
| SEDEQDAHKWLQLFIDFLKTGDEELMEKFLDPTVRSRVGDKETHGREMLVLHLLFLGVDHIHFRHVEERVYNGRVLLIITILIRVGDKHVETEIRVEIDKINGRWLAETIHIRIR | 0.778 |
| DEQKHVFNNVLRWLLESLETGDEEDLERLMDPNTRLHINGQDLHGREALRKHIEHRLKSLGVDHVHLRVHDVHIIDGKIEVDSELDLKIGDKEIRMKVRLIALKINGRWLVKHFDVT | 1.29 |
| EEDEEITKLYLEIILHIWLTGNEEELLRMFDPNARVDINGVINIGREDLLKRFHEHWRKYGAKHIRVRDIKFHIFNGVIYINLHLELIVGDKTFHVHLHMRSRKVDGRWHTHEFEERIN | 1.69 |
| SEAEEFARRVIELWIRSILTGNPDMSEKLADPNYKVHFNGVNIVGMEEFYRHLEEWRIHIDDFRIRDVRVQGDKMINDTEERITIKYGDKEIHLDVRLEIIIRKIDGRWHMHSIILH | 2.2 |
| DDEERLIKHLAERWMKDLHTGNEDSLEEMADPNWRLRQIVNGQEVRDIGREKMIEVIREIEKKLGIDRIELHVHKVEIQGDKAHLNTEIRYNGQSSLHEIRLTIINGRLHSVTIHVK | 0.85 |
| SREEKEIKEIWELLVRSWLTGDEETLTHLLDPNARSVINGREYHGRETIAHELTRHLYELRIKDIELHHVDIIGDKVKIDSRVEYHFNGRETELKVEIVALKINGRWRLKDNIIK | 1.47 |
| TEDHEDLRRFWEYFEEAFRTGDWKALSDLADPNVKIRIGDKLHVGRDDYYEFLRELIERVDHMELRLKRVHLVGDKLHVDSTLDLHVNGKRIHSRSRFTFTKVDGKWKVESVHYE | 1.61 |
| TEEEEAKHLAQRIIEEDLRTGDWSRELRQIDPDVKTRVGDKTFHGMSALHYLLKQIDHPKSFTTHHIEVQGDKIKIDGELEGNINGVRTKIHTIFIVRKVNGRWLVETIIFE | 1.53 |
| SEEDEMIEELMRTIIRLFHTGDWEKKAKLMDPNTRSVIGDKHAHGREEIVRLFLEYWRELGIDHISIHDVKLQGDKVIVNGKLRVGEKTIDVRIHYVVVNGRLKSERFEEE | 0.327 |
| SEEEKHVTSMMELWIHYIITGDEEFFLKLADPHTRFEIGDYENHGRDAVKWHRDHLGLDNVHSRIHIKELRAVGDKVHSHTHLVIHIGDKTIRMDTKVHIVYINGRITSIIVEIS | 1.31 |
| DEEDKLSKEFSRTWEEIWRTGDEQEIKHLADPDTRDLVYIDGVNIDNHGREEMSRSMREWRDKFKNAREHVTHSRAQGDKVEMRIRIDFNGREIDMIVKIIVVDGRLKEFEIEIR | 1.56 |
| SEEEEQVKEFIERWITMVKTGDEDFARKMADPNVRIEIGDKILHGRENMEHYMRRVIDEWRITHIHVNDSKVYGEYIVNEVHIHVRQGDKHHTINWELHVKKVNGRWRLQNVHFG | 2.24 |
| HEDERHLHEIIKRWFEALLTGDEHVLERLLDPNARIDIDGREFIGMEKFAHDISRIKNMQIKHHHIKHVRYVDGVMHWHGQRHGVVNGQEKNVEVIINLFVYDGRFKSMHIKDD | 1.06 |
| TESEEDAEWAFRILEHVLETGDEHLLRVLLDPHVRVHIDGRNIHGRENVIRELTEIRIHVEMHLEHVDLQGDKMHIDLRVHIIIIFNGQEKRRTHRMEMIVFKYDGKWFINEIHFH | 1.37 |
| SEEEHWVELLIELLERTQKTGDEHSFERLMDPNVRIIIGDKVMHGREEASRWMHEARVHETRIEHIRIINGRAHIDSRERGEINGREINLRVEIISSKVDGRWVITEVRVE | 0.943 |

| Sequence | protease stability score |
| --- | --- |
| SEYERDFRYAFNIYARDVLTGDEESLRRLLDPNMRIDVNGVHIHGREHLLQIWHEIRIHHFEIDLKHIEVQGNKIHVHGETHIDGEINGQRDEFKIRDSLLVLKVNGKWIFKRFIVD | 0.951 |
| SEEEEMVKIADELIRRSWDTGDEDLFLHLADPNTRIFFNGRTVHGREEVEKMIRHMRIDHYELKRIDVYNGQVVIHGKIEITVNGVTKTHEVDIIIEKINGKWILRSIHHK | 1.11 |
| REEEEEAKRFLDIITRSILTGDEDSLSELFDPNTQLHYGDKRFVGRERINEVVKQWRIEDVNLHDVEVQGEWAILDTRVDGNFNGKKRNLETRIITEKVNGRWILKRVEIE | 1.35 |
| DEESRLIEEFIKKVTHALRTGDEHRMHHLLDPHVRFYIGDKFLIGRENMAHLIRWLIEHLGVDHTHLESSSIINGKSFLDTRMHVDGQEIEVRFIIVLFDGVVNRVHYQIE | 1.1 |
| DHEEEEAERMARKIIHVLHTGDFDSWSHLADPNVRIEVGDKELHGREDLRKLFHLWDERFKNATIMVKDMRVQGNKVHLDHRLNIDGRTIHTTSEIIVINGRIHTVIIDEK | 2.29 |
| SEDEEAAHWLTLVLIELFRTGDEDSFTKLLDPNARMHVGDKDFHGRHHILHWILHFLRELGVDHRDMKVEDQHFYDGRLELHVTIIIIVGDKKIRIESHFYVEKVNGRWLVKKIHIH | 1.41 |
| SEEEEHTRHMYELFWRILHTGDEKSFHELADPNVLLRVGDKNFHGREEAERFLHEYWERYKNMRIEMKTFDFQGNKVHSEGVININGVKIRSELELVVFDGRLHSVIVRHR | 2.43 |
| DEERRSSEEYVRTLHDIIRTGDEDRLVRLADPHARLEVGEFHFHGREELEHFWRKIIEHFGHDKIEVRIESVEVQGEKIVNVGKLSVNGQEREIIFIALKYNGRWITRSIHLH | 1.59 |
| DEEEHELLHFVHLWIDILRTGDWEKISEYADPNVKLIVGDKIFIGMEAFIEFMERFLRRVDHVQYEIRSIRAYDGVIEMHTEVREHQGDKEIHTEVHITFFVYNGVKKHIEIRIK | 2.48 |
| SEDEDHARLMFELLLRMITTGDEESLRELVDPNVRVSVDGVDLHGWDSLSKFLKHIRIRVDHSEMHDMRVIDGVLQANTHMQITVEFNGRRVQRQVETRVEVVKINGKWAIHRFSVH | 2.55 |
| SEDERLMKKLWEDLIRDLITGDEDSMKRLADPNVLVEFENHKEHGRDLFSHLMFHARIKRIHTHEVEIQGDKAVYNVRIDGEINGQRHDYEREIYSFKVNGQWFIERVIIK | 1.4 |
| DEDEHDAEIWVRLVLKSLRTGDEEFLVKMADPNVRVEVGDKKDHGRNEFRKVVHKFKGVRREIHHVDVHIQGNKAEVEIHGKLNINGVEVHIIHIIRSEKVDGQWYISEVWIIIR | 1.55 |
| SKDEDDMRRWAEILIQDFITGDEDRMNHLLDPNTRVQVNGVQDHGMEALEKLFEILGFKHIDIKDLHIKLIGDKVEQDVVLRLNVNGKERKVKVHNFAEKVDGRWFVESITVHVR | 1.02 |
| SEDEEIAKEASEVFSDVLLTGNEDLFKEMIDPNVRVIVDGQDHIGRERALEFLIIWLERRGVEFKRVRVTRHRVIDGRVQMHYEVDSVVNGRRTNDSMELHSDKVNGRWIIRIIKFR | 2.38 |
| DEQEHVAERIVNDLNHSMETGDEHRIRELVDPHVRVIIGDKELHGMEEFIRWLREFGVERIRVRLKRFSFVGNKIRLDTVMNINGQNVDTKLIIEKVDGRWLLRSIHVD | 2.18 |
| DEDTKIVEEAIRYHKHNIETGNEEYMDKLADPNTRLEINGVEFHGRESYNHWMRRVLEHWRFHDIKIDSVDVFNGRVRFYGRRIVKIGEFTMIFEITYISTKFNGRWILEEEENR | 0.564 |
| SDEEKIARLALEILIKILLTGDEKMILDNADPDVRLEVNGRQIHGMEWLSKIMTEWRFRDTHVRSVRNINGVVHVDGEQDVNYNGREETVHTHYIIEKVNGVWFLKRVVLH | 1.44 |
| SEDEKQFNEFLKLFNHSLQTGDEDTLTDLMDPTVRSDINGREFHGREEMSRALNILIKLAGVDHTSIDLKRLEVVGDKAHSDVSLLLIQGDKIRTHEMKLDMYKIDGKWILTHLRFK | 1.66 |
| SEDEHRSRHDAELFLKFVKTGDEHHLQRFADPNVQFHQGEWEDHGRESLREQFRKFMEDLGADHSELESIRVHIQGDKMTVHIHVTFRVGDKTIKSTWRFYITKINGRWTMERMDVELH | 0.629 |
| STLEEHVFRMAYEIITDLETGDEEYYKKRADPDMYVHIRIGDKEVEIHGREHFIQWVKRLFEEIRIHWRIRDMHIVDGVYRFHTELEIRIGDKEHRIKSEVKVVVVNGKIKQLEIRIK | 2 |
| TEEEEHSKTLAEELLRVLLTGDEDTLHELFDPHARFHYGDKLHIGREEVTKALREVYERIDHYEVKHLEIQGDKVHVDGEHHIGDKSIRVRVHAWIVNGVVKQYHEHSL | 1.02 |
| SEEEELTRITEQLMIEHLRTGDWDELQHLLDPDARLHFNGREFIGREIVIKLKLEKLRDLGMTFRDFHIKSWDSQGDKIHLRVREEVEFNGKNIELDVEIIARKVDGKWFIEQIKVR | 1.1 |
| DEDHRLAVHISKMFEHAESTGDFEISERMADPHTKIDIGDKHYHGMEEWVRFLRELRLSTDHIEIKDSKRYNGRLIIHSRTRITLNVNGKTIDFEIDVTFIFEKVNGRWKLHMYRFD | 0.944 |
| DEDDHFWERLTEIILHILQTGNEEALHRMLDPHMRLDYNGRSFHGRELAQKALMRFWEDLGVDHIRVKDRRVQGDKVHLHGEIIIDGRLHETREHWLIVNGRIKHVRLEIR | 0.696 |
| DEEDEITHKMLRRWFEILATGNEHLFQHYADPNVLVRYEVGDKEWRLHGREEALRYWSELRIHELKVEHFTEVGDKVHMDTRRKGEFDGRRDTKKTRVHIVIIDGRLHNVELRIV | 1.14 |
